Laboratory results reported in patent publication US20160032017A1 (ACADEMIA SINICA, published 2016).

How the values were obtained:
[1] = target: T1, synthetic peptide P(29→46), AAGGSVPHPRCHCGAGRA (human); experiment: ELISA on synthetic CεmX peptides
T1 construct: Residues are counted on the CεmX domain
T1 peptide: AAGGSVPHPRCHCGAGRA

[2] = target: T2, synthetic peptide P(33→46), SVPHPRCHCGAGRA (human); experiment: ELISA on synthetic CεmX peptides
T2 construct: Residues are counted on the CεmX domain
T2 peptide: SVPHPRCHCGAGRA

[3] = target: T3, synthetic peptide P(27→40) (human); experiment: ELISA on synthetic CεmX peptides
T3 construct: Residues are counted on the CεmX domain; also called Peptide M1′-8
T3 peptide: PRAAGGSVPHPRCH

[4] = target: T4, synthetic 22 amino acid peptide P(25→46), GLPRAAGGSVPHPRCHCGAGRA (human); experiment: ELISA, plate coated with P(25→46)
T4 construct: Residues 25-46 are counted on the CεmX domain; The peptide was coated on the ELISA plates without a carrier; the OVA conjugate was used only for immunization; also called target antigen peptide
T4 peptide: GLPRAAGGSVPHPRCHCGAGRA
Method: To screen hybridomas for antibody secretion and to map the epitopes of secreted antibodies, the wells of microtiter plates were coated by incubating them overnight at 4° C. with 10 μg/mL of P(25→46) in 0.1 M carbonate buffer, pH 9.6. The wells were first blocked for 1 hour with 1% bovine serum albumin (BSA) in phosphate buffered saline (PBS), pH7.3, and then incubated for 1 hour at 37° C. at various dilutions with antisera or control antibodies. The wells were then washed and the ligand-bound antibodies detected by horse radish peroxidase (HRP)-conjugated goat anti-mouse IgG, Fcγ fragment specific (Jackson ImmunoResearch), or anti-human IgG, Fcγ fragment specific (Jackson ImmunoResearch) at a dilution of 1:10,000. To detect the ligand-bound antibodies, the wells were incubated for 1 hour at 37° C., followed by incubation with TMB (3,3′,5,5′-tetramethylbenzidine) substrate (Clinical Scientific Products).
One of the monoclonal antibodies specific for an epitope within the P(25→46), herein designated mAb 23B11, was subjected to epitope mapping studies. Several peptides representing parts of the consecutive P(25→46) were synthesized, including P(29→46) (SEQ ID NO:1); P(31→46) (SEQ ID NO:3), P(33→46) (SEQ ID NO:4), P(27→40) (SEQ ID NO:5), and […] (SEQ ID NO:6), as shown in FIG. 1A. […] The reactivity of mAb 23B11 with the synthesized peptides were analyzed by ELISA. […]

binding result [1]: binds
binding result [2]: binds
binding result [3]: binds
binding result [4]: binds
B1: monoclonal antibody mAb 23B11 (antibody, V domains shown)
VH: EVQLQQSGAELMKPGASVKISCKASGYTFSSYWIEWVYQRPGHGLEWIGEILPGSGSSNYNEKFEGKATFTADTSSNTAYMHLSSLTSEDSAVYYCARWDYYGGRGFDYWGQGTTLTAAA
VL: DIVMTQAAPSVPVTPGESVSISCRSSKSLLHSNGNIYLHWFLQRPGQSPQLLIYRMSNVASGVPDRFSGSGSGTVFTLRISRVEAEDVGVYYCMQNLEYPLTFGAGTKLELK
notes: Murine hybridoma antibody from BALB/c mice, detected with anti-mouse IgG
